According to patent US20070185028A1, “Compositions and methods for treatment of protein misfolding and protein aggregation diseases” (priority 2004, published 2007):

Key:
Aβ = Aβ (Homo sapiens, UniProt P05067); assay: Aβ Thioflavin T fluorescence (fibrillization, 50° C., 72 hours); assay type: biochemical; conditions: 1:10 Aβ:peptide; for effect on the fibrillization of Aβ (ranking): 72 hrs; for Δfluorescence (Aβ): Thioflavin T, 50° C., 72 hours
Procedure: Aβ Thioflaviin T fluorescence. Aβ fibrils were grown in the presence and absence of αB crystallin and peptides in conditions similar to that previously described for the presence of αB crystallin. Bakthisaran et al., Biochem J, 2005. Peptides were dissolved to 9.1 mM in trifluorethanol (TFE) and diluted to 0.91 mM stock solutions in 50 mM PBS, 100 mM NaCl, pH 7.4. 3.5 mg of Thioflavin T was dissolved in 100 μl of 50 mM Glycine pH 8.5. A stock solution of 1 mg/ml (0.22 mM) Aβ was prepared. 20 μl Aβ, 50 μl chaperone, 2 μl Thioflavin T was mixed with 28 μl 50 mM PBS, 100 mM NaCl, pH 7.4. Fluorescence was read using a Beckman Coultier DTX 880 multimode detector. Samples were heated at 50° C. for 72 hours and fluorescence was read again.
The fibrillization of Aβ was measured as fluorescence of the fluorescent dye Thioflavin T from solutions containing 1:10 monomeric molar ratio of Aβ:peptide. In the absence of Aβ fibrils, Thioflavin T had little or no fluorescence. The fluorescence of the Thioflavin T bound to Aβ fibrils in the absence of any other molecule after 72 hrs was set to 100%. […] Fibril formation=ΔfluorescenceAβ (with chaperone)*100/ΔfluorescenceAβ (without chaperone).

bovine βH crystallin = assay: αB crystallin protein pin array with βH crystallin; assay type: binding; conditions: unheated βH crystallin, 23° C.; similar maxima pre-heated 45° C.
Excerpt: (§1) Synthesis of Pins, binding and detection of peptides binding to ligand proteins. The αB crystallin protein pin array was used to measure the interaction between peptides and chaperone target proteins including bovine βH crystallin, human γD crystallin, equine alcohol dehydrogenase (ADH) and porcine citrate synthase (CS) as described (FIG. 12). Ghosh and Clark, Protein Sci 14: 684-95, 2005.
(§2) Refer to the methods section for detailed protocols. The absorbance corresponding to the blue coloration in each well was measured at λ=450 nm and plotted against the amino acid sequence of the corresponding peptide in that well (FIGS. 13 and 14). Wells containing peptides that have strong interactions with target proteins are dark blue and wells containing peptides that have weak or no interaction with target proteins are light blue or clear.
(§3) The purity of the target proteins used in the pin array assays, bovine βH crystallin, human γD crystallin, equine alcohol dehydrogenase (ADH) and porcine citrate synthase (CS) were determined to be >90% by SDS-PAGE. In addition, primary antibodies for each target protein were specific to that target protein and consequently contaminating proteins that may bind to the peptides will not be detected. Eighty-four sequential and overlapping peptide fragments corresponding to residues 1-175 of human αB crystallin were synthesized employing a simultaneous peptide synthesis strategy developed by Geysen, called Multipin Peptide Synthesis (Mimotopes, San Diego, Calif.). Geysen, Southeast Asian J Trop Med Public Health 21: 523-33, 1990; Chin et al., J Org Chem 62: 538-539, 1997. Peptides were immobilized on derivatized polyethylene pins arranged in a microtiter ELISA plate format. Each peptide was eight amino acids in length and consecutive peptides were offset by two amino acids. All peptides were bound covalently to the surface of the plastic pins. The first peptide was 1MDIAIHHP8 and the last peptide was 168PAVTAAPK175 for human αB crystallin.
(§4) Ghosh and Clark, Protein Sci 14: 684-95, 2005. […] The intensity of the blue color in the wells was measured at 450 nm using an ELISA plate-reader (BioTek, Winooski, Vt.). The intensity of the blue color (plotted on the X-axis) was a measure of the interaction between αB crystallin peptides (plotted on the Y-axis) and target proteins. To measure the effect of temperature on the interactions between interactive peptides and the target proteins, the target proteins were heated in a water-bath at 45° C. for fifteen minutes prior to use. Pin arrays are unable to differentiate between monomers, dimers or oligomers of target proteins that exist in solution. Instead, pin arrays are very sensitive detectors of interactions between individual peptides and the entire population (monomers, dimers or oligomers) of specific target proteins that may exist in solution under specific conditions. Each target protein was assayed two to five times. A single pin array was used for all experiments and no change in interactions was observed after more than thirty repetitions. The last three peptides of the protein pin array, 163REEKPAVT170, 165EKPAVTAA172, 167PAVTAAPK174, correspond to the epitope (163REEKPAVTAAPKK175) recognized by the primary antibody for human αB crystallin. A positive reaction is observed for these three peptides in the absence of human αB crystallin as the ligand due to direct binding of the anti-human αB crystallin antibody to these three peptides. The loss of efficiency for the pin array was measured using this assay. The loss of efficiency for the pin array was determined to be <5% by after more than 30 assays.
Protein pin arrays enabled the identification of interactive sequences necessary for the chaperone activity of human αB crystallin. Interactions between immobilized 8-mer human αB crystallin peptides and unheated and pre-heated βH crystallin, a natural protein constitute of lens cells, were measured as absorbances at λ=450 nm at 23° C. […]

[1] = as provided by manufacturer (Mimotopes); cited from earlier work
human γD crystallin = biological target: T1, human γD crystallin (Homo sapiens, UniProt P07320); assay: αB crystallin protein pin array with γD crystallin; assay type: binding; conditions: unheated γD crystallin; similar maxima pre-heated 45° C.
T1 construct: made in house
T1 sequence (P07320 1-174): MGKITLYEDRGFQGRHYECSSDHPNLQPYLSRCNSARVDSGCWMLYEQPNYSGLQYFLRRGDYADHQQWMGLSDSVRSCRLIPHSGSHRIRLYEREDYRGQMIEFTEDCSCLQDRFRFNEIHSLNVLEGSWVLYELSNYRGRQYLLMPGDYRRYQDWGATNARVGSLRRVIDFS
Excerpt: as §1, §2, §3, §4
When βH crystallin was replaced with γD crystallin, a native protein constituent of lens cytoplasm from the same gene family as the β crystallins, as the ligand in the pin array, twelve interactive sequences were identified (FIG. 14: striped bars). […]

Row | Sequence | effect on the fibrillization of Aβ (ranking) (Aβ) | Δfluorescence (Aβ) (Aβ) | absorbance at 450 nm, interaction with βH crystallin (bovine βH crystallin) | Hydrophobicity [1] | absorbance at 450 nm, interaction with γD crystallin (human γD crystallin)
1 | DRFSVNLDVKHFS | strongest effect | 264,396,672 |  |  | 
2 | ERTIPITRE |  | 576,742,720 |  |  | 
3 | FSVNLDVK [Peptide 38] |  |  | Maximum absorbances | 0.44 | maximum absorbances
4 | HGKHEERQDE | weakest effect | 796,478,624 |  |  | 
5 | LTITSSLS [Peptide 66] |  |  | Maximum absorbances | 0.7 | maximum absorbances
6 | LTITSSLSSDGV |  | 352,301,312 |  |  | 
7 | STSLSPFYLRPPSFLRAP |  | 478,389,568 |  |  | 
8 | WIRRPFFP [Peptide 5] |  |  | Maximum absorbances | 0.88 | maximum absorbances
